Results reported in article PMC2864300, “Regulation of NOXO1 Activity through Reversible Interactions with p22^phox and NOXA1” (PLoS ONE, 2010).

Legend:
[1] = target: human NOXO1 tandem SH3 domains (SH3AB) (human); experiment: ITC; MicroCal VP-ITC, 18°C; 150 mM NaCl, 1 mM DTT, 50 mM HEPES pH 7.4; typically 20–40 µM protein in the cell, 200–300 µM ligand injected; single-site binding model; averaged over three to five experiments
[2] = target: human NOXO1 tandem SH3 domains (SH3AB) (human); experiment: ITC; data not shown; peptides of the human NOXO1 C-terminal tail titrated against human NOXO1 SH3 domains

Row | Kd [1] | Kd [2] | Binder
1 | 50 µM | – | TAPPPTVPTRPS [shorter version of peptideA, which only contains the proline rich region]
2 | – | 50 µM | TAPPPTVPTRPSPGAIQSRCCTVTRRALE [peptideA (amino acids 319–347 of human NOXO1)]
